Experiment: yeast display, Sf9 membrane polyspecificity reagent, FACS + sequencing; frameworks hold sequencing errors
In short: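 Nanobodies from a synthetic yeast display library (Saccharomyces cerevisiae BJ5465), induced 36–48 hours with galactose, were stained 1 hour at 4 °C with 10% biotinylated, detergent-solubilized Sf9 membrane reagent, enriched on streptavidin microbeads, then FACS-sorted. Anti-HA (expression) and streptavidin (reagent binding) fluorescence set low and high (top ~1%) gates. Polyreactivity labels come from the gate of origin. Genes were colony-PCR amplified, MiSeq 2 × 250 sequenced and filtered by CDR length.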
In the case of “QVQLVESGVGLVQAGGSLRLSCAASGIILYRYSMGWYRQAPGKEREFGAAISRTGASTYYADSVKGRFTISRDNAKKSVYLQMNSRKPEDTAVYYCDVKALDQARYGKSGYWGQGTQVSVSS”, the “polyreactivity (PSR sort gate)” value is reported as “high polyreactivity”.
With “QVQLVESGGGLVQAGGSLRLSCAASGRTFAINAMGWSRQAPGKEWELVASIRWTDGTTYYADSVKGRFTISRDNAKNTVYLQMNSLKPEDTAVYYCAADAEGSASKYDYWGQGTQVTVSS” the “polyreactivity (PSR sort gate)” value was “low polyreactivity”.
For “QVQLVESGGGLVQAGGSLRLSCAASGRIFRWYAMGWYRQAPGKERELVATISSSGRTNYADSVKGRFTISRDNAKNTVYLQMNSLKPEETAVYYCNADGGDWFGYVGMDYWGQGTQVTVSS”, the “polyreactivity (PSR sort gate)” value was “high polyreactivity”.
With “QVQLVESGGGLVQAGGSLRLSCAASGRIFDVNAMGWYRQAPGKERELVAAITDSDGSTYYADSVKGRFTISRDNAKNTVYLQMNSLKPEDTAVYYCAATQEPVTPQPYGYWGQATQVTVSS” the “polyreactivity (PSR sort gate)” value was “low polyreactivity”.
With “QVHLVESGGGLVQAGGSLRLSSAASGSTFDYYAMGWYRQAPGKERELVAAISVGGGGTTYADSVKGRFTISRDNAKNTVYFQMNCLNPEDTAVYYCAARYRTRKRPGSKYYYWGQGTQVTVSS” the “polyreactivity (PSR sort gate)” value was “high polyreactivity”.
In the case of “QVQLVESGGGLVQAGGSLRLSCAASGLIFRPYTMGWYRQAPGKERELVAAISRSGGSTYYADSVKGRFTISRDNAKNTVYLQVNSLKPEDTAVYYCNAVPRRQGFNYWGQGTQVTVSS”, the “polyreactivity (PSR sort gate)” value is reported as “high polyreactivity”.
In the case of “QVQLVESGGGLVQAGGSLRLSCAASGSTFYTHAMGWYRQAPGKERELVAAISASVGSTYYADSVKGRFTISRDNAKNTVYLQMNSLKPEDTAVYYCAADVWASRRYDYWGQGTQVTVSS”, the “polyreactivity (PSR sort gate)” value is reported as “low polyreactivity”.
For “QVQLVESGGGLVQAGGSLRLSCAASGSIFSPNAMGWYRQAPGKERELVASITNGGSTYYADSVKGRFTISRDNAKNTVYLQMNSLKPEDTAVYYCAADHNETGLRVKVYEYDYWGQGTQVTVSS”, the “polyreactivity (PSR sort gate)” value was “low polyreactivity”.
With “QGQLVESGGGLVQAGGSLRLSCPASGNTFKYYAMGWYRQAPGKEWELVAAISYSGGSTYYADSVKGRFTISRDNAKNTVYLQMNSLKPEDTAVYYCAADPTNSYLEYDEWGQGTQVTVSS” the “polyreactivity (PSR sort gate)” value was “low polyreactivity”.
In the case of “QVHLVDSGGGLVQAGGSLRLRCAASGSSFNPNAMGLYRQDPGKERELVAAITSGGSTYYADSVKGRFTISRDNAKNTVYLQINSLKQEDTAVYYCNKALTSKDYPVRTVERDYWGQGTKVTVSS”, the “polyreactivity (PSR sort gate)” value is reported as “low polyreactivity”.
For “QVQLVESGGGLVQAGGSLRLSCAASGTIFDVNALGWYRQAPGKERELVAAITSGGGTNYADSVKGRFTISRDNAKNTVYLQMNSLKPEDTAVYYCAADHVYYDYDYWGQGTQVTVSS”, the “polyreactivity (PSR sort gate)” value was “low polyreactivity”.
With “QVQLVESGGGLVQAGGSLRLSCAASGFIFTKYTMGWYRQAPGKERELVAAIRSDGVRTYYADSVKGRFTISRDNAKNTVYLQMNSLKPEDTAVYYCNRVSAVRIGAGDYWGQGTQVTVSS” the “polyreactivity (PSR sort gate)” value was “high polyreactivity”.
With “QVQLVESGGGLVQAGGSLRLSCAASGRIFSRYAMGWYRQAPGKERELVAAISWSGGSTYYADSVKGRFTISRDNAKNNVYLQMNSLKPEDTAVYYCAARRSYSYGSWGQGTQVTVSS” the “polyreactivity (PSR sort gate)” value was “high polyreactivity”.
In the case of “QVQLVESGGGLVQAGGSLRLSCAASGSICGTYAMGWYRQAPGKERELVARITRGVSTNYADSVKGRFTISRDNAKNTVYLQMTSLKPEDTAVYYCAAESGNRYEYWGQGTQVTVSS”, the “polyreactivity (PSR sort gate)” value is reported as “low polyreactivity”.
With “QVQLVESGGGLVQAGGSLRLSCAASGSISSYAMGWYRQAPGKERELVASITWHGGGTYYADSVKGRFTISRDNAKNTVYLQMNSLKPEDTAVYYCNADYVYSWYEPLKYNYWGQGTQVTVSS” the “polyreactivity (PSR sort gate)” value was “low polyreactivity”.
For “QVQLVESGGGLVQAGGSLRLSCAASGITFYVYAMGGSRQAPGKERELVAAMTRSGGITSYADSVKGRFTISRDNAKNTGYLQMNSLKPEDTAVYYCAAERTNQHYHIQGVGYWGQGTQVTVSS”, the “polyreactivity (PSR sort gate)” value was “low polyreactivity”.
With “QVQLVESGGGLVQAGGSLRLSCAASGRTFRSYTMGWYRQAPGKERELVAAIRTSSGSTYYADSVKGRFTISRDNAKNTVYLQMNSLKPEDTAVYYCAKTLLYPWFRTVAVDYWGQGTQVTVSS” the “polyreactivity (PSR sort gate)” value was “low polyreactivity”.
With “QVQLVDSGGGLVQAGGSLRLSCAASGFTFRYYAMGWYRKAPGNERELVAGISWSGSRTYYADSVKGRFTISRDNAKNTVYLQMNSLKPEDTAVYFCAKVNSYGPVPDRYDYWGQGTQVTVSS” the “polyreactivity (PSR sort gate)” value was “high polyreactivity”.
With “QVQLVESGGGFVQARGSLRLSCAASGSIFWLYAMGWYSQAPGKERELVAAISWSTGGTYYADSVKGRFTISRDNAKNTVYLQMNSQKPEDTAVYYCNKLWVGKFKRYEFGYWGQGTQVTVSS” the “polyreactivity (PSR sort gate)” value was “low polyreactivity”.
For “QVQLVESGGGLVQAGGSLRLSCAASGFTFERYTMGWYRQAPGKEREMVATISRRSGRTSYADSVKGRFTISRDYAKNTVYLQMNRLQPEDTAVYYCAVDDAYPDRYDYWGQGTQVTVSS”, the “polyreactivity (PSR sort gate)” value was “high polyreactivity”.
For “QVQLGESGGGLVLAGGSLRLSCAASGYIFRAYAMGWYRQAPGKERELVAAISSRGGSTYYADSVKGRFTSSRDYAKNTVYLQMNSLKPEDTEVYYCAAAYRQPYIGYGYWGQGTQVTVSS”, the “polyreactivity (PSR sort gate)” value was “high polyreactivity”.
In the case of “QVQLVESGGGLVQAGGSLRLSCAASGYICVRYAMGWYRQAPGKEREFVAAISSSGGSTRYADSVKGRFTISRDNAKNTVYLQMNSLKPEDTAVYYCAATRVARHGSPMYYWGQGTQVTVSS”, the “polyreactivity (PSR sort gate)” value is reported as “high polyreactivity”.
With “QVQLVESVGGLVQAGGSLRLSCAASGINFGFNTMGWYRQAPGKERELVAAINGSDGSTYADSVKGRFTISRDNAKNTVYLQMNSLKPEDTAVYYCAADAYDGEGTYPFEYWGQGTQVTVSS” the “polyreactivity (PSR sort gate)” value was “low polyreactivity”.
In the case of “QVQLVESGGGLVQAGGSLRLSCAASGSIFGEYAMGWYRQAPGKERELVATIRQSGDSTYYAVSVKGRFTISRDTAKNTVYLQMNSLKPEDTAVYYCAADLWLYDYYSEYDYWGPGTQVTVSS”, the “polyreactivity (PSR sort gate)” value is reported as “low polyreactivity”.
With “QVQLVESGGGLVQAGGSLRLSCAASGIFRRYAMGWYRQAPGKERELVAAISSSGGSTDYADSVKGRFTISRDNAKNTVYLQMNSLKPEDTAVYYCNAYDQHGWWCYAYDYWGQGTQVTVSS” the “polyreactivity (PSR sort gate)” value was “high polyreactivity”.
In the case of “QVQLVESGGGLVQAGGSLRLICAASGRIFRGNAMGWYRQAPGKERELVAAISSGGSTNYADSVKGRFTISRDNEKNTVYLQMNSLKPEDTAVYYCAASRVRSYFGRYYWGQGTQVTVSS”, the “polyreactivity (PSR sort gate)” value is reported as “high polyreactivity”.
For “QVQLVESGGGLVHAGGSLRLSCAASGFTFPGYAMGWYRQAPGKERELVAAISRGGAGTYYADSVKGRFTISRDNAKNTVYLQMHSLKPEDTAFYDCAAATDNPSLFQDMYYWGQGTQLTVSS”, the “polyreactivity (PSR sort gate)” value was “high polyreactivity”.
With “QVQLVESGGGLVQAGGSLSLSCAAYGSTFDPNDMGWYRQAPGKERELVAVIDSGDGTTYYADSVKGRFTISRDNAKNTVYLQMNRLKPEDTAVYYCAVDESTSYYDDHEDYWGQGTQVTVSS” the “polyreactivity (PSR sort gate)” value was “low polyreactivity”.
For “QVQLQECGCGLVQAGCSLRLSCAASGTFSNSLKWLYCQAPGKEREFVATIGVGGSTNYADSVKGRFTISRDNAKNTVYLQMNSLKPEDTAVYYCAARLDTVTDYYYWGQGTQVTVSS”, the “polyreactivity (PSR sort gate)” value was “low polyreactivity”.
For “QVQLVESGGGLVQAGGSLRLSCAASGSTFFGNAMGWYRQAPGKERELVAAITTGSGRTYYADSVKGRFTISRDNAKNTVYLQMNSLKPEDTAVYYCAARFSERVYVVPFGYWGQGTQVTVSS”, the “polyreactivity (PSR sort gate)” value was “high polyreactivity”.
With “QVQLVQSGGGLVQAGGSLRLISAASGSIFRYNAMGWYRHAPGKEREFVAAITRSGGSTYADSVKGRFTISRDNAKNTLYLQIHSLKPEDTAVYYCAATFKWYSHSKPRFDYWGHGTQVTVSS” the “polyreactivity (PSR sort gate)” value was “low polyreactivity”.
In the case of “QVQLVESGGGLVQAGGSLRLSCAASGRTFYANAMGWYRQAPGKERELVAGISYSGGNTYYADSVKGRFTISRDNAKNTVYLQMNRLKPEYTAVYYCAAATDWEYWTYEYWRQGTQVTVSS”, the “polyreactivity (PSR sort gate)” value is reported as “low polyreactivity”.
In the case of “QVQLVESGGGLVQAGGSLRLSCAASGSIFHSYAMGWYRQAPGKEREFVASITQRVGRTNYADSVKGRFTISRDNAKNTVYLQMISLKPEDTAVYYCAASSWRLYYRRDSWGQGTQVTVSS”, the “polyreactivity (PSR sort gate)” value is reported as “high polyreactivity”.
In the case of “QVQLVESGGGLDQAGGSLRLSCAASGFTFYSYVMGWYRQAPGKERELVAAITRGGSTYYADSVKGRFTISRDNAKNTVYLQMNSMKPDDTAVYYCAKRPSYGFNYWGQGTQVTVSS”, the “polyreactivity (PSR sort gate)” value is reported as “low polyreactivity”.
For “KVQLVESGGGLVQAGGSLRITCAASGSNQASNAMGWYRQAPGKERELVAAIRVSGASTYYADSVKGRFTISRDNAKNTVYLQMKSLKPEYNAVYYCAADYQFGVIYYYWGQGTQVTLSS”, the “polyreactivity (PSR sort gate)” value was “low polyreactivity”.
With “QVQLVESGGGLVQAGGSLRLSCAASGRNFKFYAMGWYRQAPGKERELVAGINTDGGSTYYADSVKGRFTISRDNAKNTVYLQMNSLKPEDTAVYYCNAYYYKPARKYARHYDYWGQGTQVTVSS” the “polyreactivity (PSR sort gate)” value was “low polyreactivity”.
In the case of “QVQLVESGGGLVQAGGSLRLSCAACGITWGYAMGWYRQAPGKERELVAVIRWSGTSTSYADSVKGRYTISRAKAKNTVYLQMNSLKPEDTAVYYCNAAWYDQYGDSDGDDYWGQGTQVTVSS”, the “polyreactivity (PSR sort gate)” value is reported as “low polyreactivity”.
For “QVQLVESGAGLVQAGGSLRLSCAASGFTFSRNAMGWYRPAPGKERELVASISGRGGRTYYADSVKGRFTISRDNAKKTVYLQMNSLKPEATAVYFCAARWRQRKSVRYGQQGYDYWGQGTQVTVSS”, the “polyreactivity (PSR sort gate)” value was “high polyreactivity”.
In the case of “QVQLVESGGGLVQAGGSLRLSCAASGSIFLLYAMGWYRQAPGKERELVAAISYSGGATYYADSVKGRFTISRDNAKYTVYLQMNILKPEDTAVYYCAAEAYDDYDYWGQGTQVTVSS”, the “polyreactivity (PSR sort gate)” value is reported as “low polyreactivity”.
With “QVQLVESGGGLVQAGGSLRLSCAASGRIFDPNVMGWYRQAPGKERELVAAIRTSGGRTYYADSVKGRFTISRDNAKNTVYLQMHSLKPEDTAVYYCAKVNRAFPKYLIYGYWGQGTQVTVSS” the “polyreactivity (PSR sort gate)” value was “high polyreactivity”.
With “QVQLVESGGGLVQAGGSLRLSCAASGFTFYSYDMGWYRQAPGKERELVAAITWSGGSTYYADSVKGRFTISRDNAKNTVYLQMNSLKPEDTAVYYCAAELFPLQHFWVAYATRRYDYWGQGTQVTVSS” the “polyreactivity (PSR sort gate)” value was “low polyreactivity”.
With “QVQLVESGGGLVQAGGSLRLSCAASGSIFIVYAMGWYRQAPGKERELVATITSGGSTNYADSVKGRFTISRDNAKNTVYLQMNSLKPEDTAVYYCAAESYWGSGVVPGYDYWGQGTQVTVSS” the “polyreactivity (PSR sort gate)” value was “low polyreactivity”.
With “QVQLVESGGGLVQAGGSLRLRCAASGFTFHRYAMGWYRPAPGKERELVAGITRRSGSTFYADSVKGRFTISRDNAKNTVYLQMNSLKPEDTAVYYCAATVPGLHWIYDYWGQGTQVTVSS” the “polyreactivity (PSR sort gate)” value was “high polyreactivity”.

Reference: the nanobody polyreactivity screen of Harvey et al. (2022)
